In assay [1] the target is T1, Chimpanzee Fas on the cell surface (chimpanzee, UniProt K6ZIR5 26-335).
T1 construct: also called Fas on chimpanzee B cell line
T1 sequence: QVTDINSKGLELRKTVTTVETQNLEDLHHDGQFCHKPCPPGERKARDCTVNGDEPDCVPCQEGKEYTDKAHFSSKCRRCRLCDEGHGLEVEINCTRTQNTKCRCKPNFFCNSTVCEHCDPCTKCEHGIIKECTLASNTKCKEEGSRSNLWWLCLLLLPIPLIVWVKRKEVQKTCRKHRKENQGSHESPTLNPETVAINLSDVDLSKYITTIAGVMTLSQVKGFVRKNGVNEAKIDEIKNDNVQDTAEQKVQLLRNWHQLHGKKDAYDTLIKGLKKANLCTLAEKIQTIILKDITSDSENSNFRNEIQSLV
Description: flow cytometry, chimpanzee B cell line. The source says:
(§1) Reactivity of F45D9-γ1 or F45D9-γ4 mAb with Fas molecules of various species was initially screened using primary blood cells or lymphocytes cell lines. The binding of F45D9-γ1 or F45D9-γ4 mAb was explored by immunofluoresce staining and flow cytometry analysis, in human PBMC, purified human resting T cells, activated human T cells, peripheral blood lymphocytes (PBL) derived from BALE/c mice, rat, dog and pig, and in B cell lines or PBL derived from common marmoset, cynomolgus macaque, olive baboon, rhesus macaque and chimpanzee. Resting and activated human T cells were prepared as described in Example 7. B cells lines from monkeys were obtained from Biomedical Primate Research Center (Rijswijk, The Netherlands), and were cultured in RPMI 1640 medium supplemented with 2 mM glutamax, 100 UI/mL penicillin, 100 μg/mL streptomycin and 10% fetal bovine serum, at 37° C. and 5% CO₂. After washing in PBS cells (0.2−0.4×10⁶ cells/well) were incubated in staining buffer (PBS/1% FBS) containing F45D9-γ1 or human IgG control antibodies (10-20 ug/ml) in a 96-well U-bottom plate for 30 min on ice, in a 100 ul/well volume. Cells were then washed once with staining buffer, and further incubated for 30 min on ice with 1:30 dilution of FITC-conjugated rabbit F(ab′)₂ anti-human kappa (DakoCytomation Cat. F0434) or FITC-conjugated rabbit F(ab′)₂ anti-human IgG (DakoCytomation Cat. F0056). […]
For orientation: In flow cytometry, cells or beads pass a laser one at a time.

Assay [2] concerns the target T2, Rhesus macaque Fas on the cell surface (rhesus macaque, UniProt Q9BDP2 26-333).
T2 construct: whole, on cells
T2 sequence (looked up): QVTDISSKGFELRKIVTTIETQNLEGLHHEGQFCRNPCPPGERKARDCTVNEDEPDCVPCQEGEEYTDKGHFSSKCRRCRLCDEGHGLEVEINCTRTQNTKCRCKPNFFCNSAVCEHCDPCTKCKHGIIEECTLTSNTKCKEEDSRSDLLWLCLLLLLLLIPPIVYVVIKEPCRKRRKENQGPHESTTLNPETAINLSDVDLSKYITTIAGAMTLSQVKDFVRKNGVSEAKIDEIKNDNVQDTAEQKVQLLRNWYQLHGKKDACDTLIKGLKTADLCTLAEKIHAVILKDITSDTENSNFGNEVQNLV
The assay can be described thus: flow cytometry, rhesus macaque B cell line.
From the text: as §1

For assay [3], the target named is T3, Pig Fas on the cell surface (pig, UniProt O77736 17-332).
T3 construct: whole, on cells; also called Fas on pig peripheral blood lymphocytes
T3 sequence (looked up): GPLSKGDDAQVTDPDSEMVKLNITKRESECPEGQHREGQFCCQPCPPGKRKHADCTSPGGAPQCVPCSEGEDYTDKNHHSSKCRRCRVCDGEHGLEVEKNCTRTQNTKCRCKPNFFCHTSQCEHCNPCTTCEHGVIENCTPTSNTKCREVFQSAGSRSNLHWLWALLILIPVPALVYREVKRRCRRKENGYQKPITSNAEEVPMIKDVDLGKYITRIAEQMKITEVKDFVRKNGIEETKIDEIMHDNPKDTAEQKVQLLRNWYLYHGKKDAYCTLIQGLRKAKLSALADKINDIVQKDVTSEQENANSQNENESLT
The assay can be described thus: flow cytometry, pig peripheral blood lymphocytes.
From the text: as §1

Assay [4] has as its target T4, Rat Fas on the cell surface (rat, UniProt Q63199 22-324).
T4 construct: whole, on cells; also called Fas on rat peripheral blood lymphocytes
T4 sequence (looked up): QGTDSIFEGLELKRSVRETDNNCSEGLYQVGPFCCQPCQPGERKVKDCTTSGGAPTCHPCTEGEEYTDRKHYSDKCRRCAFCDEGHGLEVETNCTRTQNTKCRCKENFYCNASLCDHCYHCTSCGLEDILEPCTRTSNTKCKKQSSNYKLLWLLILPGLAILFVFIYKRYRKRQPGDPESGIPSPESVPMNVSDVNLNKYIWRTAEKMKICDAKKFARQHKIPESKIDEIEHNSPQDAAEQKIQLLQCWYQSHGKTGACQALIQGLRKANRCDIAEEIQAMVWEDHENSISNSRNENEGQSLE
Description: flow cytometry, rat peripheral blood lymphocytes.
From the text: as §1

Assay [5] addresses T5, Cynomolgus macaque Fas on the cell surface (cynomolgus macaque, UniProt Q9TSN4 26-331).
T5 construct: whole, on cells; also called Fas on cynomolgus macaque B cell line and PBL
T5 sequence (looked up): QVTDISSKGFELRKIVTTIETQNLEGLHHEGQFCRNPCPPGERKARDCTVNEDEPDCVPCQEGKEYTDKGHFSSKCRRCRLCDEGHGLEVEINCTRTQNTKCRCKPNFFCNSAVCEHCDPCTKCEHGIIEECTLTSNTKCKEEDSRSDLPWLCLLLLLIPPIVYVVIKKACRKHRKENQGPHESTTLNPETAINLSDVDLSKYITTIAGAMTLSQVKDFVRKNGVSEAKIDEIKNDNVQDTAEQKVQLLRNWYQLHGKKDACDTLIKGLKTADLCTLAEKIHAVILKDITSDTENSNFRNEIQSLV
Description: flow cytometry, cynomolgus macaque B cell line.
From the text: as §1

Assay [6] concerns the target T6, Mouse Fas on the cell surface (mouse, UniProt P25446 22-327).
T6 construct: whole, on cells; also called Fas on peripheral blood lymphocytes of BALB/c mice
T6 sequence (looked up): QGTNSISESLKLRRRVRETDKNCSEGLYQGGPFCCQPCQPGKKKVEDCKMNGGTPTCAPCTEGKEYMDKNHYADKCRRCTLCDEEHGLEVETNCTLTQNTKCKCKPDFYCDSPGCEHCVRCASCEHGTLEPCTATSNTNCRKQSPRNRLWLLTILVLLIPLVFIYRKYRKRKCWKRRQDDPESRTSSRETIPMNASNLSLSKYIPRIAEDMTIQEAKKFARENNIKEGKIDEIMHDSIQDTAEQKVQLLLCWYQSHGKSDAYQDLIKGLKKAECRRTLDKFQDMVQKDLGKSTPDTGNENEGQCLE
Description: flow cytometry, peripheral blood lymphocytes of mice.
From the text: as §1

Assay [7] addresses T7, Recombinant human soluble Fas receptor (PeproTech, Cat. 310-20) (human, UniProt P25445 17-173).
T7 construct: Bought soluble form; also called sFas; rFas
T7 sequence (looked up): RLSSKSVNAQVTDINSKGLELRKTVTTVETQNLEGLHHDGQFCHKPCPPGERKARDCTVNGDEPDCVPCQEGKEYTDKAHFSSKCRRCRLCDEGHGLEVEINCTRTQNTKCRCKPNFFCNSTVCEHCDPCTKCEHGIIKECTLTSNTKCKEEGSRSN
Description: SPR (BIAcore 3000), soluble Fas immobilized on CM5 chip; antibody form and model not given.

B1: F45D9 mAb (isotype not specified at the place) (antibody, V domains shown)
VH: QVQLQQWGAGLLKPSETLSLICAVYGGSFSTYYWTWIRQPPGKGLEWIGEINHRGTTNYSPSLKSRVTISVDTSKNHISLNLTSVTAADTALYYCARGLLWIGEGDYGLDVWGQGTTVTVSS
VL: DIQMTQSPSSLSASVGDRVTITCRASQGIRRWLAWYQQKPEKAPKSLIYAASSLQSGVPSRFSGSGSGTDFTLTISSLQPEDFATYYCQQYNSYPYTFGQGTKLEIKR
notes: also called F45D9 mAb's
For orientation: Kd means the equilibrium constant for the complex coming apart. Take B1: the binding result is on record as “binds” in assay [1]; “no binding” in assay [2]; “no binding (tested: 10-20 ug/ml)” in assay [3]; “no binding (tested: 10-20 ug/ml)” in assay [4]; “no binding” in assay [5]; “no binding (tested: 10-20 ug/ml)” in assay [6]. In assay [7], the Ka came to 6.5e+09 M⁻¹. For the same molecule, the Kd in assay [7] worked out at 0.153 nM.
